Results taken from the supplement of paper PMC10201428.
± gives the standard deviation of the averaged measurements.

Tests used:
[1] = test system: VchCAST RNA-guided transposition machinery (E. coli BL21(DE3) host, lacZ target); assay: relative integration efficiency (T-LR orientation) vs wild-type transposon end (log2 (normalized fold change)); transposon end mutated: right end (5 bp flank + 75 bp right end); higher = more efficient transposition
Outline: (§1)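 Each barcoded pool, 1549 left-end or 1849 right-end transposon variants in a pUC57 mini-transposon donor, went into E. coli BL21(DE3) with a T7-driven effector plasmid (CRISPR array, tniQ-cas8-cas7-cas6, tnsA-tnsB-tnsC). Plates contained 0.1 mM IPTG and were held at 37°C for 18 h. Input plasmids and genomic integration junctions were PCR-amplified and read by Illumina sequencing, with two biological output replicates and four reference barcodes. Relative integration efficiency is the fold change of output over input barcode abundance, normalised to the reference barcodes and log-transformed.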

[2] = test system: VchCAST RNA-guided transposition machinery (E. coli BL21(DE3) host, lacZ target); assay: relative integration efficiency (T-RL orientation) vs wild-type transposon end (log2 (normalized fold change)); transposon end mutated: right end (5 bp flank + 75 bp right end); higher = more efficient transposition
Outline: as §1

Sequence: ACATTTGTTGATACAACCATAAAATGATAATTAATAATTATTTATAATCACCCATAAATTGATAATTATCAACAAACGCCCGGTCGCGGTACTCTGATCATAGTCAGACCAACATTGCTACGACCCG
- relative integration efficiency (log2) [1]: 1.05 ± 0.26
- relative integration efficiency (log2) [2]: -3.08 ± 0.15

Sequence: ACATTTGTTGATACAACCATAAAATGATAATTAATAATTATTTATAATCACCCATAAATTGATAATTATCACACCCATAAATTGATATTGCCTCTGATCATAGTCAGACCAACATTGCTACGACCCG
- relative integration efficiency (log2) [1]: 0.877 ± 0.18
- relative integration efficiency (log2) [2]: -2.92 ± 0.3

Sequence: ACATTTGTTGATACAACCATAAAATGATAATTAATAATTATTTATAATCAGCAACACCCATAAATTGATAATTATCAACAAACGCCCGGTCGCGGTACTCTGATCATAGTCAGACCAACATTGCTAC
- relative integration efficiency (log2) [1]: 0.0215 ± 0.36
- relative integration efficiency (log2) [2]: -3.18 ± 0.077

Sequence: ACATTTGTTGATACAACCATAAAATGATAATTAATAATTATTTATAATCAGCAACCACCCATAAATTGATAATTATCAACAAACGCCCGGTCGCGGTACTCTGATCATAGTCAGACCAACATTGCTA
- relative integration efficiency (log2) [1]: 0.0897 ± 0.14
- relative integration efficiency (log2) [2]: -2.29 ± 0.24

Sequence: ACATTTGTTGATACAACCATAAAATGATAATTAATAATTATTTATAATCAGCAACCACCCATAAATTGATAATTATCACACCCATAAATTGATATTGCCTCTGATCATAGTCAGACCAACATTGCTA
- relative integration efficiency (log2) [1]: -1.81 ± 0.066
- relative integration efficiency (log2) [2]: -3.26 ± 0.25

Sequence: ACATTTGTTGATACAACCATAAAATGATAATTAATAATTATTTATAATCAGCAACTCACCCATAAATTGATAATTATCAACAAACGCCCGGTCGCGGTACTCTGATCATAGTCAGACCAACATTGCT
- relative integration efficiency (log2) [1]: -0.174 ± 0.43
- relative integration efficiency (log2) [2]: -2.25 ± 0.75

Sequence: ACATTTGTTGATACAACCATAAAATGATAATTAATAATTATTTATAATCAGCAACTCACCCATAAATTGATAATTATCACACCCATAAATTGATATTGCCTCTGATCATAGTCAGACCAACATTGCT
- relative integration efficiency (log2) [1]: -2.22 ± 1.2
- relative integration efficiency (log2) [2]: -3.48 ± 0.49

Sequence: ACATTTGTTGATACAACCATAAAATGATAATTAATAATTATTTATAATCAGCAACTTAACACCCATAAATTGATAATTATCAACAAACGCCCGGTCGCGGTACTCTGATCATAGTCAGACCAACATT
- relative integration efficiency (log2) [1]: -0.0617 ± 0.066
- relative integration efficiency (log2) [2]: -3.404 ± 0.015

Sequence: ACATTTGTTGATACAACCATAAAATGATAATTAATAATTATTTATAATCAGCAACTTAACACCCATAAATTGATAATTATCACACCCATAAATTGATATTGCCTCTGATCATAGTCAGACCAACATT
- relative integration efficiency (log2) [1]: -0.417 ± 0.9
- relative integration efficiency (log2) [2]: -3.62 ± 0.28

Sequence: ACATTTGTTGATACAACCATAAAATGATAATTAATAATTATTTATAATCAGCAACTTAACCACAAAACACCCATAAATTGATAATTAACAAAACACCCATAAATTGATATTGCCTCTGATCATAGTC
- relative integration efficiency (log2) [1]: < -10
- relative integration efficiency (log2) [2]: -5.1 ± 0.59

Sequence: ACATTTGTTGATACAACCATAAAATGATAATTAATAATTATTTATAATCAGCAACTTAACCACAAAACACCCATAAATTGATAATTAACAAAAGTGGGTATTTAACTATAACGTGTGAATCGAGTAT
- relative integration efficiency (log2) [1]: -1.88 ± 0.39
- relative integration efficiency (log2) [2]: -3.472 ± 0.019

Sequence: ACATTTGTTGATACAACCATAAAATGATAATTAATAATTATTTATAATCAGCAACTTAACCACAAAACACCCATAAATTGATAATTAACAACACCCATAAATTGATATTGCCTCTGATCATAGTCAG
- relative integration efficiency (log2) [1]: -1.12 ± 0.49
- relative integration efficiency (log2) [2]: -4.56 ± 0.76

Sequence: ACATTTGTTGATACAACCATAAAATGATAATTAATAATTATTTATAATCAGCAACTTAACCACAAAACACCCATAAATTGATAATTATCAACAAACGCCCGGTCGCGGTACTCTGATCATAGTCAGA
- relative integration efficiency (log2) [1]: -2.48 ± 1.9
- relative integration efficiency (log2) [2]: -4.43 ± 0.39

Sequence: ACATTTGTTGATACAACCATAAAATGATAATTAATAATTATTTATAATCAGCAACTTAACCACAAACACCCATAAATTGATAATTATCAACAAACGCCCGGTCGCGGTACTCTGATCATAGTCAGAC
- relative integration efficiency (log2) [1]: -0.33 ± 0.047
- relative integration efficiency (log2) [2]: -3.5 ± 0.52

Sequence: ACATTTGTTGATACAACCATAAAATGATAATTAATAATTATTTATAATCAGCAACTTAACCACAAACACCCATAAATTGATAATTATCACACCCATAAATTGATATTGCCTCTGATCATAGTCAGAC
- relative integration efficiency (log2) [1]: -4.03 ± 0.67
- relative integration efficiency (log2) [2]: -5.71 ± 1.2

Sequence: ACATTTGTTGATACAACCATAAAATGATAATTAATAATTATTTATAATCAGCAACTTAACCACAACACCCATAAATTGATAATTATCAACAAACGCCCGGTCGCGGTACTCTGATCATAGTCAGACC
- relative integration efficiency (log2) [1]: -0.0981 ± 0.042
- relative integration efficiency (log2) [2]: -3.33 ± 0.27

Sequence: ACATTTGTTGATACAACCATAAAATGATAATTAATAATTATTTATAATCAGCAACTTAACCACAACACCCATAAATTGATAATTATCACACCCATAAATTGATATTGCCTCTGATCATAGTCAGACC
- relative integration efficiency (log2) [1]: -2.74 ± 0.53
- relative integration efficiency (log2) [2]: -3.94 ± 1.1

Sequence: ACATTTGTTGATACAACCATAAAATGATAATTAATAATTATTTATAATCAGCAACTTAACCACACACCCATAAATTGATAATTATCAACAAACGCCCGGTCGCGGTACTCTGATCATAGTCAGACCA
- relative integration efficiency (log2) [1]: 0.76 ± 0.68
- relative integration efficiency (log2) [2]: -2.65 ± 0.4

Sequence: ACATTTGTTGATACAACCATAAAATGATAATTAATAATTATTTATAATCAGCAACTTAACCACACACCCATAAATTGATAATTATCACACCCATAAATTGATATTGCCTCTGATCATAGTCAGACCA
- relative integration efficiency (log2) [1]: -0.603 ± 0.78
- relative integration efficiency (log2) [2]: -3.09 ± 0.16

Sequence: ACATTTGTTGATACAACCATAAAATGATAATTAATAATTATTTATAATCAGCAACTTAACCACACCCATAAATTGATAATTATCAACAAACGCCCGGTCGCGGTACTCTGATCATAGTCAGACCAAC
- relative integration efficiency (log2) [1]: 1.01 ± 0.042
- relative integration efficiency (log2) [2]: -2.81 ± 0.91

Sequence: ACATTTGTTGATACAACCATAAAATGATAATTAATAATTATTTATAATCAGCAACTTAACCACACCCATAAATTGATAATTATCACACCCATAAATTGATATTGCCTCTGATCATAGTCAGACCAAC
- relative integration efficiency (log2) [1]: -0.704 ± 0.18
- relative integration efficiency (log2) [2]: -4.19 ± 0.29

Sequence: ACATTTGTTGATACAACCATAAAATGATAATTAATAATTATTTATAATCAGCAACTTAACCACCACCCATAAATTGATAATTATCAACAAACGCCCGGTCGCGGTACTCTGATCATAGTCAGACCAA
- relative integration efficiency (log2) [1]: 0.423 ± 1.1
- relative integration efficiency (log2) [2]: -3.21 ± 0.38

Sequence: ACATTTGTTGATACAACCATAAAATGATAATTAATAATTATTTATAATCAGCAACTTAACCACCACCCATAAATTGATAATTATCACACCCATAAATTGATATTGCCTCTGATCATAGTCAGACCAA
- relative integration efficiency (log2) [1]: -0.482 ± 0.91
- relative integration efficiency (log2) [2]: -3.5 ± 0.74

Sequence: ACATTTGTTGATACAACCATAAAATGATAATTAATAATTATTTATAATCAGCAACTTAACCACCCATAAATTGATAATTATCAACAAACGCCCGGTCGCGGTACTCTGATCATAGTCAGACCAACAT
- relative integration efficiency (log2) [1]: 0.501 ± 0.39
- relative integration efficiency (log2) [2]: -3.11 ± 0.29

Sequence: ACATTTGTTGATACAACCATAAAATGATAATTAATAATTATTTATAATCAGCAACTTAACCACCCATAAATTGATAATTATCACACCCATAAATTGATATTGCCTCTGATCATAGTCAGACCAACAT
- relative integration efficiency (log2) [1]: -1.2 ± 2.8
- relative integration efficiency (log2) [2]: -3.17 ± 0.073

Sequence: ACATTTGTTGATACAACCATAAAATGATAATTAATAATTATTTATAATCAGCAACTTAACCCACCCATAAATTGATAATTATCAACAAACGCCCGGTCGCGGTACTCTGATCATAGTCAGACCAACA
- relative integration efficiency (log2) [1]: 0.743 ± 0.49
- relative integration efficiency (log2) [2]: -2.76 ± 0.67

Sequence: ACATTTGTTGATACAACCATAAAATGATAATTAATAATTATTTATAATCAGCAACTTAACCCACCCATAAATTGATAATTATCACACCCATAAATTGATATTGCCTCTGATCATAGTCAGACCAACA
- relative integration efficiency (log2) [1]: 0.044 ± 0.09
- relative integration efficiency (log2) [2]: -3.06 ± 0.43

Sequence: ACATTTGTTGATACAACCATAAAATGATAATTAATAATTATTTATAATCAGCAACTTACACCCATAAATTGATAATTATCAACAAACGCCCGGTCGCGGTACTCTGATCATAGTCAGACCAACATTG
- relative integration efficiency (log2) [1]: -1.91 ± 0.28
- relative integration efficiency (log2) [2]: -4.47 ± 1

Sequence: ACATTTGTTGATACAACCATAAAATGATAATTAATAATTATTTATAATCAGCAACTTACACCCATAAATTGATAATTATCACACCCATAAATTGATATTGCCTCTGATCATAGTCAGACCAACATTG
- relative integration efficiency (log2) [1]: -3.43 ± 0.46
- relative integration efficiency (log2) [2]: -5.34 ± 0.86

Sequence: ACATTTGTTGATACAACCATAAAATGATAATTAATAATTATTTATAATCAGCAACTTCACCCATAAATTGATAATTATCAACAAACGCCCGGTCGCGGTACTCTGATCATAGTCAGACCAACATTGC
- relative integration efficiency (log2) [1]: 0.707 ± 0.87
- relative integration efficiency (log2) [2]: -2.15 ± 0.52

Sequence: ACATTTGTTGATACAACCATAAAATGATAATTAATAATTATTTATAATCAGCAACTTCACCCATAAATTGATAATTATCACACCCATAAATTGATATTGCCTCTGATCATAGTCAGACCAACATTGC
- relative integration efficiency (log2) [1]: -1.32 ± 0.21
- relative integration efficiency (log2) [2]: -3.33 ± 0.32

Sequence: ACATTTGTTGATACAACCATAAAATGATAATTAATAATTATTTATAATCAGCACACCCATAAATTGATAATTATCAACAAACGCCCGGTCGCGGTACTCTGATCATAGTCAGACCAACATTGCTACG
- relative integration efficiency (log2) [1]: 0.238 ± 0.52
- relative integration efficiency (log2) [2]: -2.43 ± 0.16

Sequence: ACATTTGTTGATACAACCATAAAATGATAATTAATAATTATTTATAATCAGCACACCCATAAATTGATAATTATCACACCCATAAATTGATATTGCCTCTGATCATAGTCAGACCAACATTGCTACG
- relative integration efficiency (log2) [1]: -2.77 ± 0.42
- relative integration efficiency (log2) [2]: -4.17 ± 0.11

Sequence: ACATTTGTTGATACAACCATAAAATGATAATTAATAATTATTTATAATCAGCACCCATAAATTGATAATTATCAACAAACGCCCGGTCGCGGTACTCTGATCATAGTCAGACCAACATTGCTACGAC
- relative integration efficiency (log2) [1]: 0.752 ± 0.5
- relative integration efficiency (log2) [2]: -2.03 ± 0.4

Sequence: ACATTTGTTGATACAACCATAAAATGATAATTAATAATTATTTATAATCAGCACCCATAAATTGATAATTATCACACCCATAAATTGATATTGCCTCTGATCATAGTCAGACCAACATTGCTACGAC
- relative integration efficiency (log2) [1]: -0.258 ± 0.51
- relative integration efficiency (log2) [2]: -3.29 ± 0.1
